{"source": "patent US7919104B2", "about": "“Functional epitopes of Streptococcus pneumoniae PsaA antigen and uses thereof” (priority 2005, dated 2011)", "molecules": {"B1": {"name": "rPsaA: purified recombinant pneumococcal surface adhesin A, non-lipidated, donated by Aventis-Pasteur (protein)", "chain": "CASGKKDTTSGQKLKVVATNSIIADITKNIAGDKIDLHSIVPIGQDPHEYEPLPEDVKKTSEADLIFYNGINLETGGNAWFTKLVENAKKTENKDYFAVSDGVDVIYLEGQNEKGKEDPHAWLNLENGIIFAKNIAKQLSAKDPNNKEFYEKNLKEYTDKLDKLDKESKDKFNKIPAEKKLIVTSEGAFKYFSKAYGVPSAYIWEINTEEEGTPEQIKTLVEKLRQTKVPSLFVESSVDDRPMKTVSQDTNIPIYAQIFTDSIAEQGKEGDSYYSMMKYNLDKIAEGLAK"}}, "key": {"[1]": {"molecular_target": "T1, P4 beads (Streptococcus pneumoniae serotype 4, UniProt P0A4G2)", "T1 sequence (P0A4G2 251-278 D258K/D259R)": "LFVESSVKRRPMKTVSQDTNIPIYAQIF", "test": "Mouse immunization: serum % IA of P4 beads (anti P4 activity)", "type": "in vivo", "description": "(§1) Serum inhibition of adherence assays were performed as previously described for the inhibition of pneumococcal adherence (Romero-Steiner). Two buffer solutions were found suitable for this type of assay: solution 1 (EMEM medium—Hanks buffered saline with Ca++ and Mg++ supplemented with 0.2% BSA) as previously reported (Romero-Steiner) or solution 2 (PBS 10 mM, pH7.2-7.4 supplemented with 1% BSA and 0.5% BSA for washes) as described below. Use of one buffer solution in preference to the other depended on availability of BSA (Sigma cat #A2153). Alternative preparations of BSA were evaluated but were not found suitable for this assay due to toxicity to the cell monolayer. Briefly, confluent monolayers of Detroit 562 cells were washed once with 130 μl/well of PBS buffer+0.5% BSA. A 45 μl volume of PBS buffer+1% BSA was added to each well and the plate was incubated while preparing serum dilutions in a replicate plate (U-bottom Costar). Serum dilutions in the replica plate could be performed in a 2-fold or 3-fold dilution scheme. For the 2-fold dilution scheme, a 10 μl volume of test or control serum was added to the first row of wells (B2-B11) already containing 70 μl of PBS+1% BSA. A 40 μl volume of PBS+1% BSA was added to the remainder of the wells including the outer perimeter. The sera from row B was serially diluted into rows C-F with a multichannel pipetor set at 40 μl (2-fold). The last 401 was discarded into the waste. Serum was not added to the adherence control wells (row G or column 11). A 20 μl volume of the optimal fluosphere dilution (usually 1:100 or 1:150, containing ˜3,100 fluospheres) was added to each well, including serum-free controls. The fluosphere suspension was sonicated for 3 minutes prior to addition to the center of the wells to generate a single fluosphere suspension. The microtiter plate was mixed by tapping the sides gently and incubated for 15 minutes at 37° C., 5% CO2. At the end of the incubation period, 55 μl/well was replica plated into the microtiter plate containing the washed monolayers containing 45 μl of PBS+1% BSA. The final well volume was always adjusted to 100-μl volume regardless of the serum dilution scheme used (2-fold or 3-fold) to control the reproducibility of fluosphere adherence The plate was mixed by tapping the sides gently and incubated for 2 hours at 37° C., 5% CO2. Following incubation, plates were washed 5 times with 130 μl/well of PBS+0.5% BSA. The plates were allowed to dry before reading in a fluorometer (BioTek, FLX 800) at 485 nm for excitation and emission at 520 nm. The percent inhibition of adherence (IA) was calculated as compared to adherence controls. The following formula was used: % IA=100-(test well FU×100)/controls mean FU."}, "[2]": {"molecular_target": "T2, P4 beads (Streptococcus pneumoniae serotype 4, UniProt P0A4G2, D258K/D259R)", "T2 sequence (P0A4G2 251-278 D258K/D259R)": "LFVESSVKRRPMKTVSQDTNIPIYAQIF", "test": "Mouse immunization: serum % IA of P4 beads (anti P4 activity)", "type": "in vivo", "conditions": "sera 1:32 dilution", "description": "as §1"}, "[3]": {"test_system": "HL-60, RAW 264.7 and Detroit 562 cells", "test": "P4 activation of phagocytes and epithelial cells (cytokine release, TEM)", "type": "cell-based", "description": "Cell suspensions of HL-60 (promyelocytes) and RAW 264.7 (monocytes), and Detroit 562 cells (nasopharyngeal epithelial cells) were centrifuged at 1000 rpm-10 min and the pellet was resuspended in 1 ml PBS buffer. To this, P4 solution (1 mg/ml) was added at 10% (v/v) concentration, mixed by inverting few times and incubated at 37° C., 5% CO2 for 15 min (HL-60 and RAW) or 30 min (Detroit 562). After incubation, the cells were centrifuged again and the supernatant was analyzed for cytokines and the cell pellet was washed once in PBS, fixed in 2% glutaraldehyde and processed for transmission electron microscopic (TEM) analysis."}, "[4]": {"test_system": "LEC-5 and NEO fibroblast cell lines", "test": "Growth of fibroblasts with P4 treated cell supernatant", "type": "cell-based", "conditions": "supernatant of P4 treated cells with higher FGFbasic, different concentrations", "description": "2 fibroblast cell lines, LEC-5 and NEO, were used. These cells were grown in a 96 well titer plates until they become confluent (˜6 days). To this, the P4 treated cell supernatant that had higher concentration of FGFbasic was added at different concentrations and the growth was monitored fluormetrically with the help of a fluorometric metabolic indicator."}, "[5]": {"test_system": "Detroit 562 cells", "test": "Competitive inhibition of adherence of rPsaA-coated fluospheres to Detroit 562 cells", "type": "cell-based, human", "conditions": "competitor 100 μg (so in the source)"}, "[6]": {"molecular_target": "T3, PsaA beads (Streptococcus pneumoniae serotype 4, UniProt P0A4G2)", "T3 construct": "Both, rPsaA (MW 34,079 daltons) and the synthetic peptides were non-lipidated; purchased Aventis-Pasteur, Toronto, Ontario, Canada (donated)", "T3 sequence (P0A4G2 20-309)": "B1 chain", "test": "Mouse immunization: serum % IA of PsaA beads (anti PsaA activity)", "type": "in vivo", "description": "as §1"}, "[7]": {"conditions": "mice serum dilution factor 8, 7th day"}, "[8]": {"conditions": "mice serum dilution factor 8, 11th day"}, "[9]": {"conditions": "mice serum dilution factor 16, 7th day"}, "[10]": {"conditions": "mice serum dilution factor 16, 11th day"}, "[11]": {"conditions": "mice serum dilution factor 32, 7th day"}, "[12]": {"conditions": "mice serum dilution factor 32, 11th day"}, "[13]": {"conditions": "mice serum dilution factor 64, 7th day"}, "[14]": {"conditions": "mice serum dilution factor 64, 11th day"}, "[15]": {"conditions": "mice serum dilution factor 128, 7th day"}, "[16]": {"conditions": "mice serum dilution factor 128, 11th day"}, "[17]": {"conditions": "mice serum dilution factor 256, 7th day"}, "[18]": {"conditions": "mice serum dilution factor 256, 11th day"}, "[19]": {"conditions": "mice serum dilution factor 512, 7th day"}, "[20]": {"conditions": "mice serum dilution factor 512, 11th day"}, "[21]": {"conditions": "mice serum dilution factor 1024, 7th day"}, "[22]": {"conditions": "mice serum dilution factor 1024, 11th day"}, "[23]": {"conditions": "mice serum dilution factor 2048, 7th day"}, "[24]": {"conditions": "mice serum dilution factor 2048, 11th day"}, "[25]": {"conditions": "mice serum dilution factor 4096, 7th day"}, "[26]": {"conditions": "mice serum dilution factor 4096, 11th day"}, "[27]": {"conditions": "P4 solution (1 mg/ml) at 10% (v/v), 15 or 30 min"}}, "note": "Entries after “also recorded” stand apart in the source; their conditions may differ.", "data": [{"molecule": "LFVESSVKRRPMKTVSQDTNIPIYAQIF [P4, non-branched synthetic peptide, PsaA amino acid residues 251 to 278 with DD changed to KR]", "values": [{"measurement": "Anti P4 activity (% IA of P4 beads)", "setting": "[1]; [7]", "result": 81, "unit": "%"}, {"measurement": "Anti P4 activity (% IA of P4 beads)", "setting": "[1]; [8]", "result": 95, "unit": "%"}, {"measurement": "Anti P4 activity (% IA of P4 beads)", "setting": "[1]; [9]", "result": 40, "unit": "%"}, {"measurement": "Anti P4 activity (% IA of P4 beads)", "setting": "[1]; [10]", "result": 44, "unit": "%"}, {"measurement": "Anti P4 activity (% IA of P4 beads)", "setting": "[1]; [11]", "result": 31, "unit": "%"}, {"measurement": "Anti P4 activity (% IA of P4 beads)", "setting": "[1]; [12]", "result": 45, "unit": "%"}, {"measurement": "Anti P4 activity (% IA of P4 beads)", "setting": "[1]; [13]", "result": 0, "unit": "%"}, {"measurement": "Anti P4 activity (% IA of P4 beads)", "setting": "[1]; [14]", "result": 4, "unit": "%"}, {"measurement": "Anti P4 activity (% IA of P4 beads)", "setting": "[1]; [15]", "result": 0, "unit": "%"}, {"measurement": "Anti P4 activity (% IA of P4 beads)", "setting": "[1]; [16]", "result": 0, "unit": "%"}, {"measurement": "Anti P4 activity (% IA of P4 beads)", "setting": "[1]; [17]", "result": 0, "unit": "%"}, {"measurement": "Anti P4 activity (% IA of P4 beads)", "setting": "[1]; [18]", "result": 0, "unit": "%"}, {"measurement": "Anti P4 activity (% IA of P4 beads)", "setting": "[1]; [19]", "result": 0, "unit": "%"}, {"measurement": "Anti P4 activity (% IA of P4 beads)", "setting": "[1]; [20]", "result": 0, "unit": "%"}, {"measurement": "Anti P4 activity (% IA of P4 beads)", "setting": "[1]; [21]", "result": 0, "unit": "%"}, {"measurement": "Anti P4 activity (% IA of P4 beads)", "setting": "[1]; [22]", "result": 0, "unit": "%"}, {"measurement": "Anti P4 activity (% IA of P4 beads)", "setting": "[1]; [23]", "result": 0, "unit": "%"}, {"measurement": "Anti P4 activity (% IA of P4 beads)", "setting": "[1]; [24]", "result": 0, "unit": "%"}, {"measurement": "Anti P4 activity (% IA of P4 beads)", "setting": "[1]; [25]", "result": 0, "unit": "%"}, {"measurement": "Anti P4 activity (% IA of P4 beads)", "setting": "[1]; [26]", "result": 0, "unit": "%"}, {"measurement": "inhibition of adherence detected in sera from immunized mice", "setting": "[2]", "result": "Up to 45%"}, {"measurement": "bacterial adherence to P4 treated NP cells", "setting": "[3]; Detroit 562 NP cells exposed to P4 solution", "result": "enhancement in bacterial adherence"}, {"measurement": "EGF release/production", "setting": "[3]; [27]", "result": "brings down EGF production; also recorded: down regulated"}, {"measurement": "FGFbasic release/production", "setting": "[3]; [27]", "result": "up regulated"}, {"measurement": "IL8 release/production", "setting": "[3]; [27]", "result": "down regulated"}, {"measurement": "cell morphology by TEM and light photomicrographs", "setting": "[3]; [27]", "result": "phagocytic activation"}, {"measurement": "growth of fibroblasts (fluorometric metabolic indicator)", "setting": "[4]", "result": "enhancement in the growth"}, {"measurement": "reduction in FU of PsaA-coated beads", "setting": "[5]", "result": 68, "unit": "%"}]}, {"molecule": "B1", "values": [{"measurement": "Anti PsaA activity (% IA of PsaA beads)", "setting": "[6]; [7]", "result": 84, "unit": "%"}, {"measurement": "Anti PsaA activity (% IA of PsaA beads)", "setting": "[6]; [8]", "result": 79, "unit": "%"}, {"measurement": "Anti PsaA activity (% IA of PsaA beads)", "setting": "[6]; [9]", "result": 47, "unit": "%"}, {"measurement": "Anti PsaA activity (% IA of PsaA beads)", "setting": "[6]; [10]", "result": 37, "unit": "%"}, {"measurement": "Anti PsaA activity (% IA of PsaA beads)", "setting": "[6]; [11]", "result": 42, "unit": "%"}, {"measurement": "Anti PsaA activity (% IA of PsaA beads)", "setting": "[6]; [12]", "result": 34, "unit": "%"}, {"measurement": "Anti PsaA activity (% IA of PsaA beads)", "setting": "[6]; [13]", "result": 0, "unit": "%"}, {"measurement": "Anti PsaA activity (% IA of PsaA beads)", "setting": "[6]; [14]", "result": 11, "unit": "%"}, {"measurement": "Anti PsaA activity (% IA of PsaA beads)", "setting": "[6]; [15]", "result": 0, "unit": "%"}, {"measurement": "Anti PsaA activity (% IA of PsaA beads)", "setting": "[6]; [16]", "result": 1, "unit": "%"}, {"measurement": "Anti PsaA activity (% IA of PsaA beads)", "setting": "[6]; [17]", "result": 0, "unit": "%"}, {"measurement": "Anti PsaA activity (% IA of PsaA beads)", "setting": "[6]; [18]", "result": 0, "unit": "%"}, {"measurement": "Anti PsaA activity (% IA of PsaA beads)", "setting": "[6]; [19]", "result": 0, "unit": "%"}, {"measurement": "Anti PsaA activity (% IA of PsaA beads)", "setting": "[6]; [20]", "result": 0, "unit": "%"}, {"measurement": "Anti PsaA activity (% IA of PsaA beads)", "setting": "[6]; [21]", "result": 0, "unit": "%"}, {"measurement": "Anti PsaA activity (% IA of PsaA beads)", "setting": "[6]; [22]", "result": 0, "unit": "%"}, {"measurement": "Anti PsaA activity (% IA of PsaA beads)", "setting": "[6]; [23]", "result": 0, "unit": "%"}, {"measurement": "Anti PsaA activity (% IA of PsaA beads)", "setting": "[6]; [24]", "result": 4, "unit": "%"}, {"measurement": "Anti PsaA activity (% IA of PsaA beads)", "setting": "[6]; [25]", "result": 0, "unit": "%"}, {"measurement": "Anti PsaA activity (% IA of PsaA beads)", "setting": "[6]; [26]", "result": 18, "unit": "%"}]}]}
